# Measured values reported in US20120141537A1.
# What was measured:
# Test in all cases: cell-based or functional assay
# [1] = target: H-2K^b wild type complexed with Q7 peptide SIINFEQL (SEQ ID NO:2) (mouse) (UniProt P01901)
# [2] = target: K^bm3 complexed with Q7 peptide (SEQ ID NO:2) (mouse) (UniProt P01901)
# [3] = target: H-2K^b wild type complexed with SIINFEKL (SEQ ID NO:1) (mouse; chicken) (UniProt P01901)
substance,measurement,setting,value
OT-1 T cell receptor (TCR),Day 14 Diabetes in B6-RIP-OVA mice given naive OT-1 spleen cells and peptide-pulsed RMAS cells,[1],0 of 4 mice
same,Day 21 Diabetes after day 15 challenge with TMEV-SIINFEKL,[1],0 of 4 mice
same,Day 14 Diabetes in B6-RIP-OVA mice given naive OT-1 spleen cells and peptide-pulsed RMAS cells,[2],0 of 4 mice
same,Day 21 Diabetes after day 15 challenge with TMEV-SIINFEKL,[2],3 of 4 mice
same,diabetes (>300 mg/dL blood glucose) after TMEV-L/OVA challenge on day 15 (FIG. 4),[2],65 % of mice
same,Day 14 Diabetes in B6-RIP-OVA mice given naive OT-1 spleen cells and peptide-pulsed RMAS cells,[3],0 of 2 mice
same,Day 21 Diabetes after day 15 challenge with TMEV-SIINFEKL,[3],2 of 2 mice
